Key:
[1] = target: T1, Tissue Factor (TF) (human, UniProt P13726 33-295); test: cell-based or functional assay
[2] = target: T1, Tissue Factor (TF); test: flow cytometry on HNSCC cell lines, 2 µg/ml tisotumab, PE-conjugated goat (Fab')2 anti-human IgG secondary

Row | binding result [2] | Binder | IC50 of cell killing (percent viable cells, Cell Titer-Blue, day 5); HNSCC cell lines with intermediate and high TF expression [1] | IC50 of cell killing (percent viable cells, Cell Titer-Blue, day 5); primary keratinocytes and VU-SCC-OE (low TF expression) [1]
1 | – | tisotumab vedotin (antibody, IgG1, V domains shown, MC-vc-PAB-MMAE (vcMMAE) attached to sulphydryl residues of the antibody; positions not given) VH: EVQLLESGGGLVQPGGSLRLSCAASGFTFSNYAMSWVRQAPGKGLEWVSSISGSGDYTYYTDSVKGRFTISRDNSKNTLYLQMNSLRAEDTAVYYCARSPWGYYLDSWGQGTLVTVSS VL: DIQMTQSPPSLSASAGDRVTITCRASQGISSRLAWYQQKPEKAPKSLIYAASSLQSGVPSRFSGSGSGTDFTLTISSLQPEDFATYYCQQYNSYPYTFGQGTKLEIK | 2.5 to 7 ng/mL | > 0.025 µg/mL
2 | binds | tisotumab (antibody, IgG1, V domains shown, Tested as IgG1 (IgG1-1015-011, Genmab); also called antibody 011; IgG1-1015-011) VH: EVQLLESGGGLVQPGGSLRLSCAASGFTFSNYAMSWVRQAPGKGLEWVSSISGSGDYTYYTDSVKGRFTISRDNSKNTLYLQMNSLRAEDTAVYYCARSPWGYYLDSWGQGTLVTVSS VL: DIQMTQSPPSLSASAGDRVTITCRASQGISSRLAWYQQKPEKAPKSLIYAASSLQSGVPSRFSGSGSGTDFTLTISSLQPEDFATYYCQQYNSYPYTFGQGTKLEIK | – | –
